Experiments:
[1] = molecular target: T1, PD1-Fc recombinant protein (human, UniProt Q15116 25-167); assay: SPR, PD1-Fc immobilized on CM5 chip, antibody as mobile phase
T1 construct: range 25-167; also called PD1-Fc antigen; PD1-Fc protein; not shown: human IgG1 Fc tag at the C-terminus

[2] = molecular target: T1, PD1-Fc recombinant protein; assay: phage ELISA, wells coated with PD1-Fc (Fc and blocked wells as controls)

T1 sequence (Q15116 25-167 limits assumed): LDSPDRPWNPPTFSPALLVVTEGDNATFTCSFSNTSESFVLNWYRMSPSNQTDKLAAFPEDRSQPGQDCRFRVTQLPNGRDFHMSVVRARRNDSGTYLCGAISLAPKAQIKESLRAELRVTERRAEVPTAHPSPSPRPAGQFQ

Row | Binder | Kd [1] [nM] | koff [1] [s⁻¹] | kon [1] [M⁻¹ s⁻¹] | binding result [2]
1 | 2-C10-(G4S)3-2-B1 bivalent PD1 antibody (with human IgG1 Fc) (Fc fusion, Two VHH joined by (G4S)3, subcloned in tandem with human IgG1 Fc; purified on Protein A; not shown: human IgG1 Fc, in tandem C-terminal (vector pcDNA3.4-hIgG1-Fc2)) QVQLVESGGGLVQPGGSLRLSCAASGFSLDAYTIGWFRQAPGQEREGISCISRSGRITNYARSAKDRFTISRDNAKNTVYLEMKNLRPEDTGAYYCAAVEMDPFLCSGYTQSYDQWGQGTQVTVSSGGGGSGGGGSGGGGSQVQLVESGGGLVQPGGSLTVSCAASGFSLDAYTIGWFRQAPGKEREGIICISRGGRITNYAHSVKDRFTISRDGAKNTVYLHMNSLKPEDTGAYYCAAVQRDPFICSGYTQSYDHWGQGTQVTVSS | 0.0211 | 3.29e-05 | 1.56e+06 | –
2 | 2-C10-(G4S)3-2-F3 bivalent PD1 antibody (with human IgG1 Fc) (Fc fusion, Two VHH joined by (G4S)3, subcloned in tandem with human IgG1 Fc; purified on Protein A; not shown: human IgG1 Fc, in tandem C-terminal (vector pcDNA3.4-hIgG1-Fc2)) QVQLVESGGGLVQPGGSLRLSCAASGFSLDAYTIGWFRQAPGQEREGISCISRSGRITNYARSAKDRFTISRDNAKNTVYLEMKNLRPEDTGAYYCAAVEMDPFLCSGYTQSYDQWGQGTQVTVSSGGGGSGGGGSGGGGSQVKLEESGGGLVQPGGSLTVSCVASGFSLDAYTIGWFRQAPGKEREGIICISRGGRITNYAHSVKDRFTISRDGAKNMVYLHMNSLKPEDTGAYYCAAVQRDPFICSGYTQSYDLWGQGTQVTVSS | 0.28 | 8.92e-05 | 318000 | –
3 | 2-F3-(G4S)3-2-B1 bivalent PD1 antibody (with human IgG1 Fc) (Fc fusion, Two VHH joined by (G4S)3, subcloned in tandem with human IgG1 Fc; purified on Protein A; not shown: human IgG1 Fc, in tandem C-terminal (vector pcDNA3.4-hIgG1-Fc2)) QVKLEESGGGLVQPGGSLTVSCVASGFSLDAYTIGWFRQAPGKEREGIICISRGGRITNYAHSVKDRFTISRDGAKNMVYLHMNSLKPEDTGAYYCAAVQRDPFICSGYTQSYDLWGQGTQVTVSSGGGGSGGGGSGGGGSQVQLVESGGGLVQPGGSLTVSCAASGFSLDAYTIGWFRQAPGKEREGIICISRGGRITNYAHSVKDRFTISRDGAKNTVYLHMNSLKPEDTGAYYCAAVQRDPFICSGYTQSYDHWGQGTQVTVSS | 0.282 | 0.000118 | 418000 | –
4 | 2-C10 VHH displayed on phage (clone from cross-panning) (VHH, Tested as a phage monoclone (pComF display vector, M13) in phage ELISA; the phage fusion partner is not described) VHH: QVQLVESGGGLVQPGGSLRLSCAASGFSLDAYTIGWFRQAPGQEREGISCISRSGRITNYARSAKDRFTISRDNAKNTVYLEMKNLRPEDTGAYYCAAVEMDPFLCSGYTQSYDQWGQGTQVTVSS | – | – | – | binds
